Article PMC8463877 (2021)

What was measured:
[1] = molecular target: T1, α-synuclein amyloid fibrils (unlabeled) (UniProt P37840 1-140); assay: 7 °C
[2] = molecular target: T1, α-synuclein amyloid fibrils (unlabeled); assay: 10 °C
[3] = molecular target: T1, α-synuclein amyloid fibrils (unlabeled); assay: 17 °C
[4] = molecular target: T1, α-synuclein amyloid fibrils (unlabeled); assay: 30 °C
[5] = molecular target: T1, α-synuclein amyloid fibrils (unlabeled); assay: 37 °C

- Kd [1]: 45.3 µM
- Kd [2]: 12.3 µM
- Kd [3]: 6.1 µM
- Kd [4]: 0.0575 µM
- Kd [5]: < 0.0103 µM
B1: GFP-labeled αB-crystallin (αB-c-TEV site-GFP-His tag) (natural protein)
chain: MDIAIHHPWIRRPFFPFHSPSRLFDQFFGEHLLESDLFPTSTSLSPFYLRPPSFLRAPSWFDTGLSEMRLEKDRFSVNLDVKHFSPEELKVKVLGDVIEVHGKHEERQDEHGFISREFHRKYRIPADVDPLTITSSLSSDGVLTVNGPRKQVSGPERTIPITREEKPAVTAAPKK
